Among the data in patent CN107973850A are Kd, kon and 中和效价 (病毒中和试验, IFA) values, retold here.

The target of test [1] is CHO细胞表达的CSFV石门株E2蛋白 (classical swine fever virus, Shimen strain).
Test [2] addresses CSFV感染细胞的E2蛋白 (CSFV石门株病毒的E2蛋白) (classical swine fever virus, Shimen strain). The test is described as follows: cell-based or functional assay.

B1: 重组猪瘟病毒E2蛋白猪源化单克隆抗体rHQ06 Sw (antibody, V domains shown)
VH: QVQLQQSGGGLVQPKGSLKLSCAASGFTFNNNAMDWVRQAPGKGLEWVARIRTKSNYYATSYADSVKDRFTISRDDSQSMLYLQMNNLKTEDTAIYFCVREGYYAWFAYWGQGTLVTVSA
VL: DIVLTQTPSSLAVSIGEKVTMSCKSSQSLLYSRNQKNYLAWYQQKPGQFPKLLIYWASTRESGVPDRFTGSGSGTDFTLTISSVKAEDLAVYYCQQYYSYPYTFGGGTKLEIKR
What is called Kd is the equilibrium constant for the complex coming apart. Higher therefore signals lower affinity. A word on the kon: it is the rate constant with which the complex forms. Low values mean slow association, high ones fast association. In test [1], B1 displayed a Kd of 13.1 nM and a kon of 98400 M⁻¹ s⁻¹. Further, the 中和效价 (病毒中和试验, IFA) in test [2] was found to be 12.
